Where two headings read alike, the source gives them in different places.
T1: recombinant protein consisting of the extracellular domain of human TREM2 fused to the His tag (human, UniProt Q9NZC2 19-174)
T1 construct: also called His tagged hTREM2; His-TREM2
T1 sequence: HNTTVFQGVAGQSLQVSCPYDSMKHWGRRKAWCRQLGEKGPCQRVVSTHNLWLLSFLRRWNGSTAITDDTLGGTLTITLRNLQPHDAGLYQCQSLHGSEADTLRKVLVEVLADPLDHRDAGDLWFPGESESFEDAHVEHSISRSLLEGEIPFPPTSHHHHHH

T2: human TREM2 (hTREM2) on cells (human, UniProt Q9NZC2 19-230)
T2 construct: also called hTREM2 expressing HEK293
T2 sequence: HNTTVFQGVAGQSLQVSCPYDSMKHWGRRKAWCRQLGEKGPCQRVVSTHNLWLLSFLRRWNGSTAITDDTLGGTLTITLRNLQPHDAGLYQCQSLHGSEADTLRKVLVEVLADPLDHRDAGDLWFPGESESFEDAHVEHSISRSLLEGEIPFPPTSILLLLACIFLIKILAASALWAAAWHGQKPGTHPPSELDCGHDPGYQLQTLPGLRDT

T3: recombinant protein consisting of the extracellular domain of human TREM2 fused to the His tag (UniProt Q9NZC2 19-174)
T3 chain: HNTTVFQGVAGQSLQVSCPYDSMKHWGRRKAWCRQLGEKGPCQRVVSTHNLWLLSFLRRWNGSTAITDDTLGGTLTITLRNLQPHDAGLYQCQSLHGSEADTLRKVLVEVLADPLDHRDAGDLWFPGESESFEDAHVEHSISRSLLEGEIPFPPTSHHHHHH

T4: soluble TREM2 protein (human, UniProt Q9NZC2 19-157)
T4 construct: also called TREM2 in cell culture supernatant (Sup)
T4 sequence: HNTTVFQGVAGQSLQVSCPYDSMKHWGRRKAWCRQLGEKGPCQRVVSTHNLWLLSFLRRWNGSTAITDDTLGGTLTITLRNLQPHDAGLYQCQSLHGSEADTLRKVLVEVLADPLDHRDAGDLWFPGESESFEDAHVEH


Key:
[1] = target: T1, recombinant protein consisting of the …; assay: direct ELISA; highest dilution with S/B >= 2.1
Procedure: (§1) Ninety six-Well ELISA microplate was coated with 0.5 μg/mL, 100 μl/well His tagged hTREM2 diluted in PBS pH 7.4, and incubated at 4° C. overnight. The plate was rinsed three times with 0.05% tween20 in PBS, blocked with 1% BSA in PBS at room temperature (RT) for 1 hr, and rinsed again. The plates was incubated with the anti hTREM2 antibodies (100 μl/well) for 2 hrs at indicated concentration, at RT. Plate was rinsed and incubated with Peroxidase-AffiniPure Goat anti Mouse IgG, Fcg fragment specific (min X Hu, Bov, Hrs, Sr Prot; Jackson ImmunoResearch) for 20 min at RT. The plate was rinsed and incubated with TMB Reagent (TM4500, Scytek) for 20 min at RT, followed by the addition of Stop Solution 2N Sulfuric Acid (DY994, R&D). OD was measured using an ELISA plate reader at dual wavelengths (450 nm and 570 nm)
(§2) Purity is measured by SDS-PAGE. Quantity of endotoxin (EU/mg) is measured by LAL assay. Titer measured by direct ELISA, while the title value is the highest dilution with S/B (Signal/Blank) >= 2.1

[2] = target: T2, human TREM2 (hTREM2) on cells; assay: flow cytometry on BMDM
Procedure: TREM2 KO and hTREM2 BMDM were washed with MACS buffer (PBS pH 7.2, 0.5% BSA and 2 mM EDTA) and stained with biotin conjugated anti hTREM2 antibodies (10 μg/mL) followed by Washing with MACS buffer and APC-streptavidin (Biolegend, 405207) incubation, then analyzed by flow cytometer (LSRII, BD).

[3] = target: T1, recombinant protein consisting of the …; assay: direct ELISA, coated His-TREM2 0.5 ug/mL, Ab stock 1 mg/mL
Procedure: as §1

[4] = target: T3, recombinant protein consisting of the …; assay: SPR
[5] = target: T4, soluble TREM2 protein; assay: sup ELISA, hTREM2 vs WT 293HEK supernatant
Procedure: Supernatant was collected, centrifuged for 5 min at 900 g and filtered (0.45 μm). Ninety six-well ELISA microplate was coated with 0.2 μg/well of anti human TREM2 Antibody (AF1828, R&D) diluted in PBS, and incubated at 4° C. overnight. The plate was rinsed three times with 0.05% tween20 in PBS, blocked with 1% BSA in PBS at room temperature (RT) for 1 hr, and rinsed again. The plates was incubated with the cell culture supernatant (100 μl/well) for 2 hrs at RT for and rinsed again. The plate was incubated with 0.1 μg biotinylayed anti hTREM2 antibodies for 2 hrs at RT. After incubation, the plate was rinsed and incubated with streptavidin-HRP (DY998, R&D) for 20 min at RT. The plate was rinsed and incubated with TMB Reagent (TM4500, Scytek) for 20 min at RT, followed by the addition of Stop Solution 2N Sulfuric Acid (DY994, R&D). OD was measured using an ELISA plate reader at dual wavelengths (450 nm and 570 nm)
(§3) A. Cells culture supernatant (Sup) was used for soluble TREM2 protein binding capability test of 18 hybridoma derived monoclonal antibodies by direct ELISA. B. Cells were captured in 96 wells plate and were used for cell based ELISA of 18 hybridoma derived monoclonal antibodies. OD values positive cells (hTREM2 expressing HEK293) and negative cells (WT HEK293) are showing in the table.

[6] = target: T1, recombinant protein consisting of the …; assay: direct ELISA; highest dilution with S/B >= 2.1; remark: listed apart in the source
Procedure: as §1, §2

[7] = target: T1, recombinant protein consisting of the …; assay: direct ELISA
Procedure: as §1

[8] = target: T2, human TREM2 (hTREM2) on cells; assay: cell-based ELISA, hTREM2 vs WT 293HEK cells
Procedure: Cells were washed three times with PBS and blocked (5% FBS, 1% BSA in PBS) for 2 hrs at RT. Cells were washed with 1% BSA in PBS and were incubated with 0.1 ug (or indicated amount) obiotinylayed anti hTREM2 antibodies for 4 hrs at RT. After incubation, cells were incubated with streptavidin-HRP (DY998, R&D) for 20 min at RT. The cells were washed and incubated with TMB Reagent (TM4500, Scytek) for 30 min at RT, followed by the addition of Stop Solution 2N Sulfuric Acid (DY994, R&D). OD was measured using an ELISA plate reader at dual wavelengths (450 nm and 570 nm). Biotinylation of Antibodies was done using EZ-Link™ Sulfo-NHS-LC-Biotinylation kit (Thermo Fisher Scientific) according to manufacturer's instructions.
as §3

Row | Titer [1] [dilution] | FACS positive/negative BMDM [2] [ratio] | OD at dilution 1000 [3] [OD] | OD at dilution 3000 [3] [OD] | OD at dilution 9000 [3] [OD] | OD at dilution 27000 [3] [OD] | OD at dilution 81000 [3] [OD] | OD at dilution 243000 [3] [OD] | OD at dilution 729000 [3] [OD] | OD at dilution 2187000 [3] [OD] | OD at dilution 6561000 [3] [OD] | OD at dilution 19683000 [3] [OD] | Kd [4] [pM] | sup ELISA positive/negative (293HEK) [5] [ratio] | Titer [6] [dilution] | direct ELISA positive/negative [7] [ratio] | Cell based ELISA positive/negative [8] [ratio] | Binder
1 | 243000 | 2.58 | 2.59 | 2.49 | 1.98 | 0.843 | 0.375 | 0.179 | 0.099 | 0.068 | 0.07 | 0.053 | 32.1 | 27.9 | 243000 | 34.8 | 1.91 | 83E10B12 (antibody, V domains shown, Biotin conjugated in sup ELISA, cell-based ELISA and flow cytometry) VH: QVQLQESGPELVKPGASVKISCKASGYIFSYSWMNWVKQRPGKGLEWIGRIYPGDGDADYNGKFKGKATLTADKSSNTAYMQLTSLTSEDSAVYFCARLHIYDGYYVSVYWGQGTLVTVSA VL: DIQMTQTTSCLSASLGDRVTISCRASQDINNYLSWYQQKPDGTVKLLIYYTSKLHSGVPSRFSGSGSGTDYSLTIGNLEQEDVATYFCQQGDTLPWTFGGGTRLEIK
2 | 2.19e+06 | 1.78 | 1.84 | 1.8 | 1.9 | 1.63 | 1.16 | 0.763 | 0.322 | 0.17 | 0.113 | 0.063 | – | 11 | 2.19e+06 | 31.5 | 1.89 | 60H4A3 (antibody, V domains shown, Biotin conjugated in sup ELISA, cell-based ELISA and flow cytometry) VH: EVQLQESGPELVKPGASVKMSCKASGYTFTDYNMHWVKQSHGKSLEWIGYIYPNNGGTGYNQKFKGKATLTVNKSSSTAYMELRSLTSEDSAVYYCARSGRGFAYWGQGTLVTVSA VL: DIVMTQSPASLSVTPGDRVSLSCRASQSISDYLHWYQQKSHESPRLLIKYASQSISGIPSRFSGSGSGSDFTLSINSVEPEDVGVYYCQNGHSFPYTFGGGTKLEIK
3 | 729000 | 1.16 | 1.83 | 1.89 | 1.69 | 1.31 | 0.849 | 0.432 | 0.222 | 0.133 | 0.102 | 0.067 | – | 10 | 729000 | 27.4 | 1.38 | 60H4G2 (antibody, V domains shown, Biotin conjugated in sup ELISA, cell-based ELISA and flow cytometry) VH: EVQLQESGPELVKPGASVKMSCKASGYTFTDYNMHWVKQSHGKSLEWIGYIYPNNGGTGYNQKFKGKATLTVNKSSSTAYMELRSLTSEDSAVYYCARSGRGFAYWGQGTLVTVSA VL: DIVMTQSTSSLTVTAGEKVTMSCKSSQSLLNSGNQKNYLTWYQQKPGQPPKLLIYWASSRESGVPDRFTGRGSGTDFTLTISSVQAEDLAVYYCQNDYSYPFTFGSGTKLEIK
4 | 2.19e+06 | 1.47 | 2.75 | 2.76 | 2.88 | 2.58 | 1.92 | 0.985 | 0.405 | 0.169 | 0.099 | 0.066 | – | 3.05 | 2.19e+06 | 35.1 | 2.46 | 61B11C9 (antibody, V domains shown, Biotin conjugated in sup ELISA, cell-based ELISA and flow cytometry) VH: QLQESGPEQVKPGASVKMSCRTSGYTFTAYNMHWVKQRLGKSLEWIGYIRPTNGDTRYNRRFRDKATLTVDKSSSTTYMELRSLTSEDSAVYYCTRSTTVASFDYWGQGTTLTVSS VL: DIVMTQTTSSLTVSVGQKITLNCKSSQSLLYTNNQKNFLAWYQQKPGQSPKLLIYWASTRDSGVPDRFTGSGSGTDFTLTITSVMAEDLAVYFCQQYYDFPPTFGGGTKLEIK
5 | 2.19e+06 | 1.87 | 2.02 | 2.12 | 2.16 | 1.76 | 1.2 | 0.608 | 0.281 | 0.145 | 0.092 | 0.085 | 0.0275 | 24.9 | 2.19e+06 | 33.4 | 2.8 | 80E3C7 (antibody, V domains shown, Biotin conjugated in sup ELISA, cell-based ELISA and flow cytometry; also called anti-TREM2 antibody (E3C7); TREM2 Ab E3C7) VH: QVQLQQPGAEPLKPGASVKMSCEASGYTFTNFWITWMKLRPGQGLEWIGDIYPGTGNTNYNEKFKSRATLTVDTSSTTAYMQLSSLTSEDSAVYYCAREAYYTNPGFAYWGHGTLVTVSA VL: DVLMTQSPLSLPVNLGDQASISCKSSQNIVHSNGNTYLEWYLQRPGQSPKLLIYKVSNRFSGVPDRFSGSGSGTDFTLKISRVEAEDLGVYYCFQGSHVPYTFGGGTKLEIK
6 | 729000 | 2.72 | 1.4 | 1.35 | 1.18 | 0.967 | 0.586 | 0.276 | 0.147 | 0.106 | 0.087 | 0.069 | 399 | 25.1 | 729000 | 33.9 | 2.69 | 54H2C1 (antibody, V domains shown, Biotin conjugated in sup ELISA, cell-based ELISA and flow cytometry) VH: QVQLQQPGAEPLTPGASVKMSCEASGYTFTNFWITWVKLRPGQGLEWIGDIYPGSGNTNYNEKFKSRATLTVDTSSTTAYMQLSSLTSEDSAVYYCAREAYYTNPGFAYWGHGTLVTVSA VL: DVLMTQSPLSLPVNLGDQASISCKSSQNIVHSNGNTYLEWYLQRPGQSPKLLIYKVSNRFSGVPDRFSGSGSGTDFTLKISRVEAEDLGLYYCFQGSHVPYTFGGGTKLEIK

— patent US20240239886A1 (YEDA RESEARCH AND DEVELOPMENT, published 2024)
